Measured values as given in article PMC7845591.

Target: endothelial protein C receptor (EPCR), residues 16 to 210, biotinylated on the BAP tag (human) (UniProt Q9UNN8)
Experiment: SPR; Biacore T200; biotinylated EPCR captured on a CAP chip (150 RU); twofold dilution series of CIDRα domain or synthetic binder injected 240 s, dissociation 300 s; 20 mM HEPES pH 7.5, 150 mM NaCl, 0.005% Tween 20, 25°C; global fit to a 1:1 model

Chain of UniProt Q9UNN8 (Q9UNN8 16-210): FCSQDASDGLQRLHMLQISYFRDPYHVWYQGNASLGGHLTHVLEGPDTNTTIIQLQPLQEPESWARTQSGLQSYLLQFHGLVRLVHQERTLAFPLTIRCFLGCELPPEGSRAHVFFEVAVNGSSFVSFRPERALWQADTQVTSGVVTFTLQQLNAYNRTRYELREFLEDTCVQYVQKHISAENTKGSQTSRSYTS

“HB3var03 CIDRα1.4 domain D576A K642A double mutant (domain or fragment)” gave a Kd of 220 nM.
